Assay results published in US20260062464A1.

What was measured:
[1] = biological target: recombinant N2 neuraminidase of A/Wisconsin/67/2005 (H3N2) (Influenza A virus A/Wisconsin/67/2005 (H3N2)); test: ELISA on plate-coated recombinant NA, absorbance 450 nm
[2] = biological target: recombinant N2 neuraminidase of A/Moscow/10/1999 (H3N2) (Influenza A virus A/Moscow/10/1999 (H3N2)); test: BLI, NA on biosensor, Fab in solution, 1:1 fit
[3] = biological target: recombinant N2 neuraminidase of A/Wisconsin/67/2005 (H3N2) (Influenza A virus A/Wisconsin/67/2005 (H3N2)); test: BLI, NA on biosensor, Fab in solution, 1:1 fit

B1: NDS.6 monoclonal antibody (antibody, V domains shown)
VH: QVQLVQSGPEVKKPGASVKVSCKASGYNFNRYGLTWVRQAPGQGLEWMGWISTYNSDTIYAREFRGRVTLTTDTSTRTAYMELRSLISADTAVYYCARDNVEEAFPISYYFDHWGQGTLVSVSS
VL: QSALTQPRSVSGSPGQSVTISCTGTSSDVGLYNYVSWYQHHPGKAPKFLIYDVTKRPSGVPDRFSGSKSGNTASLTISGLQAEDEADYYCCSYVGSYILVFGGGTKVTVL
EC50 (read off the curve) [1]: 0.2 µg/mL

B2: NDS.5 monoclonal antibody (antibody, V domains shown)
VH: QLRLQESGPGLVKPSETLSLTCTVSGGSITSSPYYWGWIRQPPGKGLEWIGSIYYSGSTYYNPSLRSRVTISLDTSMNQFSLKLSSVTAADTAVYYCAEEYYDFWRTQDWGQGTLVTVSS
VL: EIVLTQSPGTLSLSPGERATISCRASQSVSGRNLAWYQQKPGQAPRLLIYAASNRATGIPDRFSGSGSGTDFTLTISRLEPEDFAVYYCQQYGTSKTFGQGTKVEIK
EC50 (read off the curve) [1]: 0.05 µg/mL

B3: Fab of NDS.1 (Fab, V domains shown)
VH: QVQLRQWGAGLLKPSETLSLTCDVYGGSFNFYFWTWIRQPPGKGLEWLGEITHSGSATYIPSLKSRVTLSVDTSKGQFSLKLTSVNVADTAVYYCAGLPIDYDTVHLGYYPMDVWGQGTPVTVSS
VL: DIQMTQSPSSLSASVGDRVTITCRASQGIRNYLAWYQQKPGKVPKLLIYGASTLQSGVPSRFSGSGSGTDFSLTISSLQPEDIATYFCQEYNNAPRTFGQGTKVEIK
Kd [2]: 0.217 nM | koff [2]: 1.16e-05 s⁻¹ | kon [2]: 53300 M⁻¹ s⁻¹ | Kd [3]: 75.6 nM | koff [3]: 0.00431 s⁻¹ | kon [3]: 57000 M⁻¹ s⁻¹

B4: Fab of NDS.1.1 (Fab, V domains shown)
VH: QVQIQQWGAGLLKPSDTLSLTCSVYGGSFNFYYWTWVRQPPGKGLEWLAEINHSGSINYIPSLNSRVALSVDTSKGQFSLRLSSVTAADTAVYYCTGVPIDYESLHLGYYPMDVWGQGTPVIVSS
VL: DIQMTQSPSSLSASVGDRVTITCRASQGISNYLAWWQQKPGQVPKLLIYAASTLQSGVPSRFSGSGSGTDFSLTISSLQPDDVAIYYCQKYNSAPRTFGQGTKVEIK
Kd [2]: 8.31 nM | koff [2]: 0.000187 s⁻¹ | kon [2]: 22500 M⁻¹ s⁻¹ | Kd [3]: 136 nM | koff [3]: 0.00565 s⁻¹ | kon [3]: 41500 M⁻¹ s⁻¹

B5: Fab of NDS.3 (Fab, V domains shown)
VH: EVQLVESGGGLVKPGGSLRLSCAASGFTFSDYSMTWIRQIPGKGLEWLSYTTSSGRPIFYADSVKGRFTMSRDNAKMSVYLQMNSLRDADSAVYYCARGDPHYIWGTYLDSWGPGTLVTVSS
VL: QSALTQPPSASGSPGQSVTISCTGTTSDFGDHNYVSWYQQRPGEAPKLIIYDVSKRPSGVPDRFSGSKSGNTASLTVSRLQADDEANYYCSSIEGSNTLLFGGGTKLTVL
Kd [2]: 18.9 nM | koff [2]: 0.000517 s⁻¹ | kon [2]: 27400 M⁻¹ s⁻¹ | Kd [3]: 60.9 nM | koff [3]: 0.00527 s⁻¹ | kon [3]: 86500 M⁻¹ s⁻¹
